Substitutions are numbered along the chain they refer to. Numbers in names are those of the source. Where two headings read alike, the source gives them in different places.
Experiments:
[1] = tested on: S. cerevisiae strain sKR-024; test: Growth of synthetic yeast strain sKR-024 expressing EPSPS variants with or without glyphosate; format: cell-based, Saccharomyces cerevisiae; conditions: for growth in yeast minimal media without glyphosate: 0 mM glyphosate; for order of glyphosate tolerance: 5 mM glyphosate, FIG. 1 Panel C; for glyphosate tolerance in synthetic yeast host: mutants isolated from directed evolution
Procedure: EPSPS variants were re-cloned into a clean p416-Core1p backbone and transformed into strain sKR-024 as described above. Colonies were then picked in triplicate into YSC-Ura-Leu and outgrown for 2 days at 30° C. Cultures were then diluted back to OD 0.001 in yeast minimal media (YMM) containing varying amounts of glyphosate as indicated. Growth rate measurements were then obtained using an Infinite M200 PRO microplate reader (Tecan, Männedorf, Switzerland) with incubation at 30° C. for 72-120 hours depending on growth rate of selected variants.
To determine if this system could further corroborate observations from previous literature, the well-studied EPSPS mutants T102I and P106S, and the combined double mutant TIPS (T102I-P106S) were generated and complemented into this yeast system. These mutations were reported to result in varying degrees of glyphosate resistance.
Having established low copy number and weak promoter expression of EPSPS variants, it was sought to recharacterize phenotypes under field conditions that are used in planta. […] It has been reported previously that under standard glyphosate foliar application, 0.3 mM or more of glyphosate (gly) can accumulate in a plant's root nodules and meristems. […] These trends support reported literature of mutants P106S and TIPS grown in various plant hosts. As a result, the present synthetic yeast model system closely resembles in planta observations and thus can be used to select for dual-trait EPSPS variants aimed at both enzymatic efficiency and glyphosate resistance.
Select mutants isolated from the final directed evolution campaign with the improved selection strategy were further evaluated in assorted glyphosate concentrations to determine growth characteristics. Mutants isolated from an EPSPS background were evaluated in media containing 0 mM and 0.25 mM glyphosate with the latter being the concentration at which wild-type EPSPS cannot grow after 100 hours. […] The non-glyphosate mono selection highlighted in blue represents mutations resulting from 5 subcultures in 0 mM glyphosate. The low glyphosate dual selection highlighted in light green represents mutants resulting from an additional subculture into 0.5 mM glyphosate. Lastly, the high glyphosate dual selection highlighted in dark green represent mutations isolated after subcultures in increasing levels of glyphosate, up to 10 mM.

maize EPSPS = test: In vitro characterization of EPSPS mutants (EnzChek phosphate assay, Michaelis-Menten kinetics, glyphosate Ki); format: biochemical, Zea mays; conditions: for Km: apparent Km, mean±S.E.; for Ki: inhibitory constant for glyphosate, no unit in table (around 800 μM)
Procedure: Activity was determined by quantifying release of Pi, coupled to a reaction with MESG, catalyzed by purine-nucleoside phosphorylase using the EnzChek Phosphate Assay Kit from Invitrogen, first published in 1992. 95 μL of master mix was added to each well and 5 μL of the varied substrate dilutions were multi-channeled into the plate to start the reaction simultaneously for all conditions. Absorbance measurements at 360 nm were taken every 10 seconds for 3 minutes to capture the initial reaction rate of each condition. Varying levels of substrate were added to generate the resulting reaction rate curves. Each condition was performed in triplicate. Ki was determined as previously described (Lu, et al., Protein Engineering, Design and Selection 30:395-399 (2017)). Data was fit to the Michaelis-Menten kinetics equation and were also validated through GraphPad Prism's built-in function for each variant.
For protein expression of EPSPS and its variants, E. coli BL21 (DE3) was used as the expression host. Electrocompetent cells were transformed with the corresponding constructed plasmids, pET28a (+) with selected EPSPS variants (wild-type, TIPS, TIPS P126S, TIPS K296R, TIPS P126S/K296R). A single colony of an E. coli BL21 (DE3) strain harboring one of the constructed plasmids was inoculated into 2 mL of Luria Bertani broth (LB) medium with 50 μg/mL kanamycin and grown overnight at 37° C./225 rpm. The overnight-grown culture (using 100 μl) was scaled up with 2000-fold dilution in a 500-mL triple baffled shake flask and grown to a cell density of 0.8 (optical density [OD600]) at 37° C./225 rpm. Protein expression was induced by adding 0.2 mM of isopropyl β-D-1-thiogalactopyranoside (IPTG) and cells were cultured for 24 hours at 20° C./225 rpm. The induced cell culture was harvested by centrifugation at 4,000 g and 4° C. for 20 mins. Cell pellets were then resuspended in 25 mL of Dulbecco's Phosphate Buffered Saline (DPBS) (Thermo Fisher Scientific, Waltham, MA) pH 7.0 buffer containing 10 mM imidazole, 1 g/L of lysozyme and 5 μl of Pierce™ Universal Nuclease (Thermo Fisher Scientific, Waltham, MA), followed by mixing on a rocker for 30 mins at 4° C. Subsequently, cells were lysed by sonication and the resulting cell lysate was centrifuged at 14,000 g and 4° C. for 20 minutes to obtain the supernatant that contains soluble proteins. Target proteins from the supernatant was purified by HisPur™ Ni-NTA Resin (Thermo Fisher Scientific, Waltham, MA) according to the manufacturer's instruction.
The eluate was dialyzed with 3C protease added to the dialysis cassette, into the appropriate buffer followed by size-exclusion fast protein liquid chromatography. All EPSP synthase variants were stored in 20 mM Tris (pH 7.5), 100 mM NaCl and 10 mM β-mercaptoethanol. The protein concentration was then determined by using the Coomassie Plus Bradford Assay kit (Thermo Fisher Scientific) and the Infinite M200 PRO microplate reader (Tecan, Männedorf, Switzerland) to measure the absorbance of assay mixtures. The presence and purity of the purified proteins were assessed by sodium dodecyl sulfate-polyacrylamide gel electrophoresis.
Enzymatic activity, including inhibitory constant Ki, for EPSPS and TIPS closely corroborate values determined by previous reports. Mutations P126S and K296R have beneficial effects on their own to both Km and kcat and are additive when combined, similar to the observations of the in vivo growth characterization. Furthermore, the high Ki is maintained for each of the variants, showing similar or slightly higher values of around 800 μM compared to the starting point, TIPS. These findings confirm the phenotype endowed by the dual-trait selection pressure employed during the directed evolution campaigns. Kinetic parameters of maize EPSPS with mutations discovered through directed evolution. In Table 4, initial velocity data were measured in triplicate and fit to the Michaelis-Menten equation. […]

transgenic maize plants = test: Maize transformation with glyphosate selection, plantlet recovery and quality checks; format: in vivo, Zea mays; conditions: for Number of young plants passing quality control checks: in vivo; for Number of plantlets generated: under glyphosate selection, same amount of starting material
From the text: Maize was used as a model system to test the functionality of the EPSPS variants because of detailed previous characterization of glyphosate tolerance in maize and a suitable transgenic plant generation protocol that relies on glyphosate. Plant transformation vectors were generated in which the native maize EPSPS sequence was used, which includes the native gene promoter elements, the native introns and exons and the native 3′ untranslated region and introduced mutations that corresponded to each of the selected amino acid changes. The native sequence was used to mimic as closely as possible how the selected EPSPS variants would perform if the variants were introduced directly in the genome without the help of strong expression elements. The following variants were selected for testing in a transgenic maize system: TIPS (as a control); TIPS-P126S-M217L-K296R; TIPS-P126S-K296R; T102I-P126S-K296R (where only the T102I change is present); P106S-P126S-K296R (where only the P106S change is present); and P126S-K296R (where neither of the TIPS changes are present).
Transgenic maize plants that expressed each of the six EPSPS variants were generated to determine if the variants conferred glyphosate tolerance to plants. The full DNA sequence encoding TIPS EPSPS (SEQ ID NO:1) was cloned from maize genomic DNA. In this sequence, the promoter and 5′ UTR are nucleotides 1:2556; the chloroplast transit peptide sequence is nucleotides 2557:2742; EXON 1 is nucleotides 2743:2856; INTRON 1 is nucleotides 2857:3384; EXON 2 is nucleotides 3385:3626; INTRON 2 is nucleotides 3627:3725; EXON 3 is nucleotides 3726:3879; INTRON 3 is nucleotides 3880:4152; EXON 4 is nucleotides 4153:4367; INTRON 4 is nucleotides 4368:4877; EXON 5 is nucleotides 4878:4995; INTRON 5 is nucleotides 4996:5155; EXON 6 is nucleotides 5156:5366; INTRON 6 is nucleotides 5367:5446; EXON 7 is nucleotides 5447:5508; INTRON 7 is nucleotides 5509:5617; EXON 8 is nucleotides 5618:5836; and the 3′ UTR is nucleotides 5837:6368. Mutations were then introduced into the EPSPS coding sequence in order to produce each of the six EPSPS variants to be tested. These mutated full genomic DNA sequences were then each cloned as a single expression cassette into plant transformation vectors.
Agrobacterium tumefaciens-mediated plant transformation was performed using methods known in the art. Glyphosate selection was used to select for transgenic events containing the transgene of interest and further screened for only those EPSPS variants that provided effective glyphosate tolerance in a plant cell. While all six EPSPS variants began the transformation process with the same amount of starting maize cellular material, there were differences in the number of small plantlets recovered that were capable of being transplanted to greenhouse soil media (Table 4). Transgenic events were further analyzed to determine transgene copy number. Healthy events with single copy of the transgene of interest were grown in the greenhouse soil media. Only three of the six EPSPS variants had more than one plant surviving. Up to twenty-five of these developing R0 plants were transplanted to larger pots and allowed to grow to maturity for seed collection in the greenhouse.

[2] = PEP at saturation (roughly 10 times its Km), read-out: Km (S3P)
[3] = S3P at saturation (roughly 10 times its Km), read-out: Km (PEP)

B1: P106S: well-studied EPSPS single mutant P106S (protein)
chain: AGAEEIVLQPIKEISGTVKLPGSKSLSNRILLLAALSEGTTVVDNLLNSEDVHYMLGALRTLGLSVEADKAAKRAVVVGCGGKFPVEDSKEEVQLFLGNAGTAMRSLTAAVTAAGGNATYVLDGVPRMRERPIGDLVVGLKQLGADVDCFLGTDCPPVRVNGIGGLPGGKVKLSGSISSQYLSALLMAAPLALGDVEIEIIDKLISIPYVEMTLRLMERFGVKAEHSDSWDRFYIKGGQKYKSPKNAYVEGDASSASYFLAGAAITGGTVTVEGCGTTSLQGDVKFAEVLEMMGAKVTWTETSVTVTGPPREPFGRKHLKAIDVNMNKMPDVAMTLAVVALFADGPTAIRDVASWRVKETERMVAIRTELTKLGASVEEGPDYCIITPPEKLNVTAIDTYDDHRMAMAFSLAACAEVPVAIRDPGCTRKTFPDYFDVLSTFVKN
- growth in yeast minimal media without glyphosate [1]: grew very similarly
- growth in glyphosate ([1]; 0.5 mM glyphosate, Core1p promoter): slightly higher growth than EPSPS after 80 hours
- growth in glyphosate ([1]; 5 mM glyphosate (high levels)): no growth
- order of glyphosate tolerance [1]: P106S<T102I<TIPS

B2: T102I: well-studied EPSPS single mutant T102I (protein)
chain: B1 chain with T102I, S106P
- order of glyphosate tolerance [1]: P106S<T102I<TIPS

B3: TIPS-P126L: maize EPSPS variant, SEQ ID NO:22 (protein)
chain: B1 chain with T102I, P126L
modifications: Zea mays
- glyphosate tolerance in synthetic yeast host [1]: moderate glyphosate tolerance

B4: TIPS-1177V: maize EPSPS variant, SEQ ID NO:21 (protein)
chain: B1 chain with T102I, I177V
modifications: Zea mays
- glyphosate tolerance in synthetic yeast host [1]: moderate glyphosate tolerance

B5: TIPS-V66L-M104L: maize EPSPS variant, SEQ ID NO:17 (protein)
chain: B1 chain with V66L, T102I, M104L
modifications: Zea mays
- growth in yeast minimal media without glyphosate [1]: high growth in non-glyphosate
- glyphosate tolerance in synthetic yeast host [1]: high glyphosate tolerance

B6: P106S-K296R: P106S scaffold carrying ported mutation(s), as worded in b196 (protein)
chain: B1 chain with K296R
- growth in glyphosate ([1]; 5 mM glyphosate (high levels)): observable growth

B7: TIPS-P126S: maize EPSPS variant, SEQ ID NO:15 (protein)
chain: B1 chain with T102I, P126S
modifications: Zea mays
- Km (maize EPSPS; [2]): 28.2 µM
- Km (maize EPSPS; [3]): 13.7 µM
- Ki (maize EPSPS): 859 µM

B8: TIPS-K296R: maize EPSPS variant, SEQ ID NO:16 (protein)
chain: B1 chain with T102I, K296R
modifications: Zea mays
- Km (maize EPSPS; [2]): 16.5 µM
- Km (maize EPSPS; [3]): 24 µM
- Ki (maize EPSPS): 841 µM

B9: T102I-P126S-K296R: maize EPSPS variant, SEQ ID NO:12 (protein)
chain: B1 chain with T102I, S106P, P126S, K296R
modifications: Zea mays
- Number of young plants passing quality control checks (transgenic maize plants): 1
- Number of plantlets generated (transgenic maize plants): 69

B10: P106S-P126S-K296R: maize EPSPS variant, SEQ ID NO:13 (protein)
chain: B1 chain with P126S, K296R
modifications: Zea mays
- Number of young plants passing quality control checks (transgenic maize plants): 0
- Number of plantlets generated (transgenic maize plants): 39

— patent publication US20260275304A1, “METHODS AND COMPOSITIONS FOR GLYPHOSATE TOLERANCE IN PLANTS” (Monsanto Technology LLC, priority 2023, published 2026)
